One series has as its target T1, myc-tagged H37 protein.
T1 chain: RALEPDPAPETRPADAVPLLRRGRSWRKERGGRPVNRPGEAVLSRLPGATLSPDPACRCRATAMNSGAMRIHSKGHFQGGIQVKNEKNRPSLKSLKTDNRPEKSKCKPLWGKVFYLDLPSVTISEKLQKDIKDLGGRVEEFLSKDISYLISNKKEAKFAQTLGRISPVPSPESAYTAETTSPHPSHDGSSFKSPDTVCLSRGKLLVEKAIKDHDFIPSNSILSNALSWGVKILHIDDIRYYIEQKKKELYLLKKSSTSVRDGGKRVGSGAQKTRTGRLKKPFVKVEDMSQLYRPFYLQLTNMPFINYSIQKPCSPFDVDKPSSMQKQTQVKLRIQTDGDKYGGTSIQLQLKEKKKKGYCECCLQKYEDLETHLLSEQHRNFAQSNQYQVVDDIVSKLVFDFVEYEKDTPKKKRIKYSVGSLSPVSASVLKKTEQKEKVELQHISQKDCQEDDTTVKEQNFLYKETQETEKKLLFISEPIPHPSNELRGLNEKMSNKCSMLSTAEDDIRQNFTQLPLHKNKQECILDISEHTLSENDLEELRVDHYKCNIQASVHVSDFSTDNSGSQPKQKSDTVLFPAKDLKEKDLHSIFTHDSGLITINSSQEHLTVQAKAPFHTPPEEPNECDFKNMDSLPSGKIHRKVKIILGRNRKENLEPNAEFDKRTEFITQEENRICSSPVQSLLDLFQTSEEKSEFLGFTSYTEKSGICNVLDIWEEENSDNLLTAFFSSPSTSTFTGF

Series [1] concerns the target huCdc7 fused to DNA-binding domain of Gal4 (human). Description: yeast two-hybrid assay, lacZ activity.

B1: huCdc7 (protein)
chain: MEASLGIQMDEPMAFSPQRDRFQAEGSLKKNEQNFKLAGVKKDIEKLYEAVPQLSNVFKIEDKIGEGTFSSVYLATAQLQVGPEEKIALKHLIPTSHPIRIAAELQCLTVAGGQDNVMGVKYCFRKNDHVVIAMPYLEHESFLDILNSLSFQEVREYMLNLFKALKRIHQFGIVHRDVKPSNFLYNRRLKKYALVDFGLAQGTHDTKIELLKFVQSEAQQERCSQNKSHIITGNKIPLSGPVPKELDQQSTTKASVKRPYTNAQIQIKQGKDGKEGSVGLSVQRSVFGERNFNIHSSISHESPAVKLMKQSKTVDVLSRKLATKKKAISTKVMNSAVMRKTASSCPASLTCDCYATDKVCSICLSRRQQVAPRAGTPGFRAPEVLTKCPNQTTAIDMWSAGVIFLSLLSGRYPFYKASDDLTALAQIMTIRGSRETIQAAKTFGKSILCSKEVPAQDLRKLCERLRGMDSSTPKLTSDIQGHASHQPAISEKTDHKASCLVQTPPGQYSGNSFKKGDSNSCEHCFDEYNTNLEGWNEVPDEAYDLLDKLLDLNPASRITAEEALLHPFFKDMSL
As to B1, the “in vitro kinase reaction of huCdc7/H37 immunoprecipitates with GST-MCM3 fusion protein as substrate” value with myc-tagged H37 protein is “phosphorylation in a good efficiency was observed for the MCM3 protein in both immunoprecipitate of anti-huCdc7 antibody and immunoprecipitate of anti-myc antibody”.

B2: H37 deletion derivative ΔC fused to Gal4 activation domain (protein, not shown: large carriers)
chain: MNSGAMRIHSKGHFQGGIQVKNEKNRPSLKSLKTDNRPEKSKCKPLWGKVFYLDLPSVTISEKLQKDIKDLGGRVEEFLSKDISYLISNKKEAKFAQTLGRISPVPSPESAYTAETTSPHPSHDGSSFKSPDTVCLSRGKLLVEKAIKDHDFIPSNSILSNALSWGVKILHIDDIRYYIEQKKKELYLLKKSSTSVRDGGKRVGSGAQKTRTGRLKKPFVKVEDMSQLYRPFYLQLTNMPFINYSIQKPCSPFDVDKPSSMQKQTQVKLRIQTDGDKYGGTSIQLQLKEKKKKGYCECCLQKYEDLETHLLSEQHRNFAQSNQYQVVDDIVSKLVFDFVEYEKDTPKKKRIKYSVGSLSPVSASVLKKTEQKEKVELQHISQKDCQEDDTTVKEQNFLYKETQETEKKLLFISEPIPHPSNELRGLNEKMSNKCSMLSTAEDDIRQNFTQLPLHKNKQECILDISEHTLSENDLEELRVDHYKCNIQASVHVSDFSTDNSGSQPKQKSDTVLFPAKDLKEKDLHSIFTHDSGLITINSSQEHLTVQAKAPFHTPPEEPNECDFKNMDSLPSGKIHRKVKIILGRNRKENLEPNAEFDKRTEFITQEENRICSSPVQSLLDLFQTSEEKSEFLGFTSYTEKSGICNVLDIWEEEN
In the case of B2, the binding ability with huCdc7 relative to full-length H37 in series [1] amounted to 60%.

For the origin of these results see patent US6897054.
